Source: patent publication US20260125457A1 (Janssen / Centocor, published 2026)

Legend:
[1] = molecular target: T1, CD3EG-HSA-6xHis (CD3W220.002) (human, UniProt P07766 22-118; P09693 23-103); test: SPR
T1 construct: also called human CD3; not shown: human serum albumin (HSA); 6xHis tag

[2] = molecular target: T2, Avi/his-CalR-Ins5 (CALRW28.004) (human, UniProt P27797 18-417, limits assumed); test: SPR
T2 construct: also called human CALRins5
T2 sequence (looked up): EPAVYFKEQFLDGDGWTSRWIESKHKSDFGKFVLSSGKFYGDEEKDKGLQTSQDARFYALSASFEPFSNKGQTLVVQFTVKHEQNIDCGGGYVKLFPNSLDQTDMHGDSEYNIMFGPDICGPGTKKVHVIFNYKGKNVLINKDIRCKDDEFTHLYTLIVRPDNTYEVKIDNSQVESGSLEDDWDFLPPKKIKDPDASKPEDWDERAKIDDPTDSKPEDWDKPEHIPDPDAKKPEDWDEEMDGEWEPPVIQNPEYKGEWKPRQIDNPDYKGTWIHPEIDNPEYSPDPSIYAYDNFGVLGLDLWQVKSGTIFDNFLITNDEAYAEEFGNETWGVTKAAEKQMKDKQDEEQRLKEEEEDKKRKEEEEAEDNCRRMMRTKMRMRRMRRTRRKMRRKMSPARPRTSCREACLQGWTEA

[3] = molecular target: T3, Flag/6xhis-CALRdel52 (CALRW12.007) (human, UniProt P27797 18-417); test: SPR
T3 construct: also called human CALRdel52
T3 sequence (looked up): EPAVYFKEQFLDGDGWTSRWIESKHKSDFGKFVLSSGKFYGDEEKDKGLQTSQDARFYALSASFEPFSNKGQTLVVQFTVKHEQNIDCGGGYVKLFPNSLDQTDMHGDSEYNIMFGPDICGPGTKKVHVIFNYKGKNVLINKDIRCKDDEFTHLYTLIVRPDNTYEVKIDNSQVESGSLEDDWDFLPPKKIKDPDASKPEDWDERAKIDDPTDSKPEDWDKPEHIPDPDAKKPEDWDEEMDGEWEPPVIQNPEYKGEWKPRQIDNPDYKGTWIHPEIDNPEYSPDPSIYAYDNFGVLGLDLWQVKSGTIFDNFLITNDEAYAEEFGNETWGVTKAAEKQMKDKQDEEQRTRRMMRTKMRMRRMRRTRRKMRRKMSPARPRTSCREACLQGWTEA

[4] = molecular target: T4, wild-type CALR (CALRW14.001) (UniProt P27797 18-417, limits assumed); test: SPR
T4 sequence (looked up): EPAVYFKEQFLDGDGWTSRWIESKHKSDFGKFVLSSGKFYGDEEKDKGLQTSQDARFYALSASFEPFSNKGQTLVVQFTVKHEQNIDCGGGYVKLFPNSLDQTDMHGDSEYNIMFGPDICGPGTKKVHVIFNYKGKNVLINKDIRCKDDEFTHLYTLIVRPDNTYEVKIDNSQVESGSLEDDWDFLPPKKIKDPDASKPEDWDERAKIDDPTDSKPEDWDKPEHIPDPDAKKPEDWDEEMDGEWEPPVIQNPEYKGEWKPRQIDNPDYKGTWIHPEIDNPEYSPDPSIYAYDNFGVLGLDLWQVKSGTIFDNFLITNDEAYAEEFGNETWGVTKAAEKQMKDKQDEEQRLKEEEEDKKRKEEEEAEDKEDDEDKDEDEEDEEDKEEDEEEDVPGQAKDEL

[5] = molecular target: T5, CALRins5 (mutant calreticulin, 5 base pair insertion, Type 2) expressed with MPL on engineered cancer cells (UniProt P27797 18-417); test: flow cytometry on OCI-M2 MPL CALRins5 cells, 1 h at 37 C, AF647 secondary antibody, Geometric mean
T5 construct: whole, on cells; On the cell surface in complex with MPL; also called OCI-M2 MPL CALRins5
T5 sequence (looked up): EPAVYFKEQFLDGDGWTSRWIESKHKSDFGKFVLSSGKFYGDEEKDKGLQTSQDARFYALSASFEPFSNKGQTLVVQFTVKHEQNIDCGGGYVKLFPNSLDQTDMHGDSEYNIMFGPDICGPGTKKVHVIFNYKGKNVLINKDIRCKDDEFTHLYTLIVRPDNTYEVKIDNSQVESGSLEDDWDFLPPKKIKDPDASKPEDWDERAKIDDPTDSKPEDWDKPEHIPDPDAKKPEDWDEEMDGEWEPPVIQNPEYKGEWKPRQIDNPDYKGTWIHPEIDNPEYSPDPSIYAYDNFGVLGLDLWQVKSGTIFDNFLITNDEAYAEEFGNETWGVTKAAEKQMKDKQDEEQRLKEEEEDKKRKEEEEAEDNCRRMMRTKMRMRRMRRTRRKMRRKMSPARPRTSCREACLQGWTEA
Procedure: FIGS. 27A-27F depict binding of different CALRmutxCD3 antibodies to CALRmut-negative or CALRmut-positive cells. Flow cytometry was used to evaluate CALRmutxCD3 binding to CALRmut-negative and CALRmut-positive cancer cells in vitro. CALRmutxCD3 antibodies were tested on a panel of cell lines, engineered to express MPL and CALRmut, after 1 hour 37° C. incubation, with subsequent incubation with secondary AF647-labeled antibody. Geometric mean fluorescence intensity of AF647 was measured to determine antibody binding.

[6] = molecular target: CALRmut on CD34+ cells isolated from CALRmut MPN patients; test: cell-based or functional assay
[7] = molecular target: T1, CD3EG-HSA-6xHis (CD3W220.002); test: SPR, forced degradation: pH 8.5
[8] = molecular target: T2, Avi/his-CalR-Ins5 (CALRW28.004); test: SPR, forced degradation: pH 8.5
[9] = molecular target: T3, Flag/6xhis-CALRdel52 (CALRW12.007); test: SPR, forced degradation: pH 8.5
[10] = molecular target: T5, CALRins5 (mutant calreticulin, 5 base …); test: cell-based or functional assay
[11] = molecular target: T6, CALRdel52 (mutant calreticulin, 52 base pair deletion, Type 1) expressed with MPL on engineered cancer cells (UniProt P27797 18-417); test: cell-based or functional assay
T6 sequence (looked up): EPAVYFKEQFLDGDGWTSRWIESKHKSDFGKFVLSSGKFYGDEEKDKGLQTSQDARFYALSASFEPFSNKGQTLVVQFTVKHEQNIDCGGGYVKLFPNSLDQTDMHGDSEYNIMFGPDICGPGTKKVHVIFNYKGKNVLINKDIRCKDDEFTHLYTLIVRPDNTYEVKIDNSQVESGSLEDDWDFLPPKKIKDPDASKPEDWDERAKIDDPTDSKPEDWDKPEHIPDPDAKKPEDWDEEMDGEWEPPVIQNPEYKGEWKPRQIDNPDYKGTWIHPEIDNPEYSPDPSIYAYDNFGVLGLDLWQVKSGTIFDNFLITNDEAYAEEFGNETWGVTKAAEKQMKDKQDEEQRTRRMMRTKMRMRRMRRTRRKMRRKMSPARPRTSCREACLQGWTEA

[12] = molecular target: T1, CD3EG-HSA-6xHis (CD3W220.002); test: SPR, forced degradation: Physiological
[13] = molecular target: T2, Avi/his-CalR-Ins5 (CALRW28.004); test: SPR, forced degradation: Physiological
[14] = molecular target: T3, Flag/6xhis-CALRdel52 (CALRW12.007); test: SPR, forced degradation: Physiological

T1 sequence (P07766 other isoform, or with tags, fused parts or gaps): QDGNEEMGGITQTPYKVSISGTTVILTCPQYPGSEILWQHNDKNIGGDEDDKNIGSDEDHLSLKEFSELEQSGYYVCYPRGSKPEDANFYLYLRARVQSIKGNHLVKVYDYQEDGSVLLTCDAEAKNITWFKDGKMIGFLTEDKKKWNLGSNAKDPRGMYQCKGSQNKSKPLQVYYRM

B1: C3CRB73 CALRmut x CD3 bispecific antibody (bispecific antibody, human IgG1, kappa, L234A L235A)
heavy: EVQLLESGGGLVQPGGSLRLSCAVSGIDLSNNAISWVRQAPGKGLEYVGVIGNTGDTYYADSAKGRFTISRDSSKTTLYLQMNSLRAEDTAVYFCVRGPPSYSSSVKNIWGQGTLVTVSSASTKGPSVFPLAPSSKSTSGGTAALGCLVKDYFPEPVTVSWNSGALTSGVHTFPAVLQSSGLYSLSSVVTVPSSSLGTQTYICNVNHKPSNTKVDKKVEPKSCDKTHTCPPCPAPEAAGGPSVFLFPPKPKDTLMISRTPEVTCVVVSVSHEDPEVKFNWYVDGVEVHNAKTKPREEQYNSTYRVVSVLTVLHQDWLNGKEYKCKVSNKALPAPIEKTISKAKGQPREPQVYTLPPSREEMTKNQVSLSCAVKGFYPSDIAVEWESNGQPENNYKTTPPVLDSDGSFFLVSKLTVDKSRWQQGNVFSCSVMHEALHNRFTQKSLSLSPGK
light: DIQMTQSPSSVSASVGDRVTITCQSSQSVYNNNWLSWLQQKPGKAPKRLIYDASKLESGVPSRFSGSGSGTDFTLTISSVQPEDAATYYCAGGFTGNVYTFGGGTKVEIKRTVAAPSVFIFPPSDEQLKSGTASVVCLLNNFYPREAKVQWKVDNALQSGNSQESVTEQDSKDSTYSLSSTLTLSKADYEKHKVYACEVTHQGLSSPVTKSFNRGEC
scFv: DIQMTQSPSSLSASVGDRVTITCRARQSIGTAIHWYQQKPGCAPKLLIKYASESISGVPSRFSGSGSGTDFTLTISSLQPEDFATYYCQQSGSWPYTFGQGTKLEIKGGGSGGSGGCPPCGGSGGEVQLVESGGGLVKPGGSLRLSCAASGFTFSRYNMNWVRQAPGKGLEWVSSISTSSNYIYYADSVKGRFTFSRDNAKNSLDLQMSGLRAEDTAIYYCTRGWGPFDYWGCGTLVTVSSEPKSSDKTHTCPPCPAPEAAGGPSVFLFPPKPKDTLMISRTPEVTCVVVSVSHEDPEVKFNWYVDGVEVHNAKTKPREEQYNSTYRVVSVLTVLHQDWLNGKEYKCKVSNKALPAPIEKTISKAKGQPREPQVYTLPPSREEMTKNQVSLWCLVKGFYPSDIAVEWESNGQPENNYKTTPPVLDSDGSFFLYSKLTVDKSRWQQGNVFSCSVMHEALHNHYTQKSLSLSPGK
notes: IgG1-AAS; also called JNJ-88549968; CALRB421 Fab x CD3 spFv
- Kd [1]: 0.214 nM
- Kd [2]: 0.0331 nM
- Kd [3]: 0.0602 nM
- binding result [4]: no binding (tested: 300 nM)
- EC50 (read off the curve) [5]: ~5 nM
- cytotoxicity EC50, autologous assay, patient CALRmut CD34+ cells [6]: 0.94 nM
- cytotoxicity EC90, autologous assay, patient CALRmut CD34+ cells [6]: 7.58 nM
- maximal cytotoxicity, autologous assay, CD34+ cells of one donor without detected binding [6]: 68%
- maximum cytotoxicity, autologous assay, patient CALRmut CD34+ cells [6]: 69%
- % Active [7]: 93%
- Kd [7]: 0.28 nM
- % Active [8]: 97%
- Kd [8]: 0.0313 nM
- % Active [9]: 104%
- Kd [9]: 0.251 nM
- % CD25+ CD8 T cells EC50 (nM), CALRmut patient blood, ELF-153 MPL CALRins5 [10]: 1.68 nM
- % CD25+ CD8 T cells EC50 (nM), healthy donor blood, ELF-153 MPL CALRins5 [10]: 0.53 nM
- % CD69+ CD8 T cells EC50 (nM), CALRmut patient blood, ELF-153 MPL CALRins5 [10]: 1.08 nM
- % CD69+ CD8 T cells EC50 (nM), healthy donor blood, ELF-153 MPL CALRins5 [10]: 0.41 nM
- % CD25+ CD8 T cells EC50 (nM), CALRmut patient blood, ELF-153 MPL CALRdel52 [11]: 2.46 nM
- % CD25+ CD8 T cells EC50 (nM), healthy donor blood, ELF-153 MPL CALRdel52 [11]: 1 nM
- % CD69+ CD8 T cells EC50 (nM), CALRmut patient blood, ELF-153 MPL CALRdel52 [11]: 3.06 nM
- % CD69+ CD8 T cells EC50 (nM), healthy donor blood, ELF-153 MPL CALRdel52 [11]: 0.88 nM
- % Active [12]: 96%
- Kd [12]: 0.301 nM
- % Active [13]: 99%
- Kd [13]: 0.0622 nM
- % Active [14]: 98%
- Kd [14]: 0.0171 nM
